According to paper doi:10.1101/2020.02.13.948224 (bioRxiv, 2020):
Numbering of substitutions follows the chain as printed. Values belong to the binder of their own block, whether it stands above or below them.

What was measured:
[1] = target: mouse RBPj (aa 53-474) (mouse, UniProt P31266 53-474); assay: native gel or EMSA
[2] = target: the molecule itself; assay: native gel or EMSA

Chain of mouse RBPj (aa 53-474) (P31266 53-474): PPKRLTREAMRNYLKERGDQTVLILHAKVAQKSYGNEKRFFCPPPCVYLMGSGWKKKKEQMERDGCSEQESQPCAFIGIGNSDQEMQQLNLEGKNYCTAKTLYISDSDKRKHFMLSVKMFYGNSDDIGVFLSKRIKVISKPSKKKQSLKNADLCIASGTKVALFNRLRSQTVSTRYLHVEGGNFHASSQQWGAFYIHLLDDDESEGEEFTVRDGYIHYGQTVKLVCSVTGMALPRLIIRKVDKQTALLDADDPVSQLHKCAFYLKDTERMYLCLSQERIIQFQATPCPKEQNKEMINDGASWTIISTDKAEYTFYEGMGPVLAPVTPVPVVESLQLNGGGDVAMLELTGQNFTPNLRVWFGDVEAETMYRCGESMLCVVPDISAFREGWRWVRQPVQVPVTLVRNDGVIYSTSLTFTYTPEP

binding result [1]: binds
B1: human SMT3-MAML1 (aa 1-280) (domain or fragment, UniProt Q92585 1-280, looked up)
chain: MVLPTCPMAEFALPRHSAVMERLRRRIELCRRHHSTCEARYEAVSPERLELERQHTFALHQRCIQAKAKRAGKHRQPPAATAPAPAAPAPRLDAADGPEHGRPATHLHDTVKRNLDSATSPQNGDQQNGYGDLFPGHKKTRREAPLGVAISSNGLPPASPLGQSDKPSGADALQSSGKHSLGLDSLNKKRLADSSLHLNGGSNPSESFPLSLNKELKQEPVEDLPCMITGTVGSISQSNLMPDLNLNEQEWKELIEELNRSVPDEDMKDLFNEDFEEKKD

binding result [1]: binds
B2: mouse N1ICD (aa 1744-2113) (domain or fragment, UniProt Q01705 1744-2113, looked up)
chain: VLLSRKRRRQHGQLWFPEGFKVSEASKKKRREPLGEDSVGLKPLKNASDGALMDDNQNEWGDEDLETKKFRFEEPVVLPDLSDQTDHRQWTQQHLDAADLRMSAMAPTPPQGEVDADCMDVNVRGPDGFTPLMIASCSGGGLETGNSEEEEDAPAVISDFIYQGASLHNQTDRTGETALHLAARYSRSDAAKRLLEASADANIQDNMGRTPLHAAVSADAQGVFQILLRNRATDLDARMHDGTTPLILAARLAVEGMLEDLINSHADVNAVDDLGKSALHWAAAVNNVDAAVVLLKNGANKDMQNNKEETPLFLAAREGSYETAKVLLDHFANRDITDHMDRLPRDIAQERMHHDIVRLLDEYNLVRSPQ
binding result [2]: binds

binding result [1]: binds
B3: mouse N1^RAICD (aa 1744-2113) (domain or fragment, UniProt Q01705 1744-2113, looked up)
chain: B2 chain with R231A
